Experimental findings from the domain aggregation screens of Martell et al. (2025) are described below.

A short description of this series: soluble fraction after stress (log2 fold change); higher = more stays soluble; pooled small domains, quantitative proteomics. The following applies: stress: pH 4. Summed up: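 Aggregation propensity is read out as the fold change in how much of each domain remains soluble after acid stress. The custom small-domain libraries were pooled, held at pH 4 and analysed with high-throughput quantitative proteomics. On the log2 scale used, higher values mean more of the domain stayed soluble.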

As for “HMQEESISWKEFLELDIIGDKKKRLKVYDLFHLGYGNAKTLFKRLNMVGISREMIEKELENEGY”, the “soluble fraction (log2)” value is -0.0561.

Turning to “HMQEKIREVANRIRELRESLEVSPEEMADHLKVTIGTYIEYERGEADIPASVLFGIAHRLNVDMAVLL”, the “soluble fraction (log2)” value is -1.36.

In the case of “HMQEKLELIIPVSSIGKRADVAIQDLLSSYSRAKIQEWIKSGFILLESKKISPKDIFMGGERVFIDIQQDE”, the “soluble fraction (log2)” value was -1.38.

Turning to “HMQELVPGKVFEGTVTEMKNGQVTLGLSDGKTISARMEQGVSLAKGQPMLFEVKSNTGEQIAIRPVVL”, the “soluble fraction (log2)” value amounted to 0.105.

As to “HMQENKVLEGKVLEKKKKKVFVDLSPFGVGVIRGVNYLEAKNELKDIEEGDNIKVRVLEIDNENGFIELAL”, the “soluble fraction (log2)” value is -1.13.

With “HMQERQREGFVQQLRGKYSGQVVMRLFPELQGKALGEFMRKFEAQWEDHEAVLAAMEAHEIESRLKVFK”, the “soluble fraction (log2)” value was -1.2.

In the case of “HMQETALANFETNEGVQKVKQYVQENVPSLRGSNIVGVWTSYTPEGLTNYRTRFLTQDGQFVEVNLAYQ”, the “soluble fraction (log2)” value was -0.885.

In the case of “HMQETIDVAALRVGMFVHLDLGWLAHPFPLSSFRISSEDQISTIRALGLKRVRWSSQHSELG”, the “soluble fraction (log2)” value is -1.27.

Turning to “HMQETKDEGAQVLLNKINALVAAVQGQIITPEEAAIKLATDGDLDLDVDARVAAIEEFNKKLSEAQNN”, the “soluble fraction (log2)” value is -0.682.

With “HMQEVILEKIQLTYLSADKLSKMAEQFSIPVKMYWVDENPMMLMVMGNESDIATFKKVLTQIDIPENKS”, the “soluble fraction (log2)” value was -1.04.

On to “HMQFHQDNYALEFIRDLQPVDGAIILSRFKQFDLVELEKAKKIKFSDEHMAWTLYDYDIKKIN”, for which the “soluble fraction (log2)” value is -1.82.

On to “HMQFLKPQDVLFLLKLVVLKGPASIFPAVPESLGLSKAEVHNSAKRVRGARLLPHDSWNPLRKNLLEFL”, for which the “soluble fraction (log2)” value was 0.0341.

For the sequence “HMQFQVHEIKGKEYYIHVVEKGNTLYAISRMYSVPIETLKEENPRLNTTELTIGDRLLIPLDEVKRKNIE”, the “soluble fraction (log2)” value was -0.316.

For the sequence “HMQFYSGLEARLMDPNTPEVFDDPISLMAFLQQKNISRVELEDNLLLPYLKEMAGQPIPKAELLEIIRK”, the “soluble fraction (log2)” value was -2.19.

Take “HMQGDHELSQRILSYLSEQGGSSPLTDKASPEEIYRIFRVSKKKYKQALGNLYKSKSIIILADKIQLL”: the “soluble fraction (log2)” value turned out to be 0.195.

In the case of “HMQGEDEILKIHEALEELAQIDARLVRVVEMRYFVGLSNQEIADSLGVTTRTVERDWEKARTFLFNALHP”, the “soluble fraction (log2)” value was -0.717.

Regarding “HMQGISGIERSLLDALAFEPAGLDALQARTGLDTPTLQALLMGLELQGHVARLPGSLFQRLVR”, the “soluble fraction (log2)” value is -1.35.

As for “HMQGVTVPDLTRVSLEEAVATISSLGLRYEISDRRSNAAFPANYVLDQAPGANTIVKPNRKVYLTVNAA”, the “soluble fraction (log2)” value was 0.381.

As to “HMQGWREWDYSADLYINARVGGKIEPTENSPISRVYELDEPVSVVAFTSTRYFKLSSGDYIFAEYLSAQKV”, the “soluble fraction (log2)” value was -0.18.

Consider “HMQGYELKMYVTPDTKYSVAVYDAKNEMVSYTMGFSAKAPFGQEGEVLETVKLEFDKLAVGNYELKYWI”, for which the “soluble fraction (log2)” value is -0.0121.

“HMQHYQFEVDEASSKKRLDVFLSENLPEISRSRLKKLIDEKRVTVNEMSRPAGYKVRVKEKIEFHIPPL”: the “soluble fraction (log2)” value is -0.317.

Regarding “HMQIAEAESLGQRLLQQSINNIVGRDEAITEERLNRVLSQYSLTGRDELMAQIGLGNRNSSLVAKAMYDI”, the “soluble fraction (log2)” value is -0.35.

Regarding “HMQIKEVDYGTFISMTEDGEIGRVEIQQQENTILFTDEDETAVYKTAMVEDDQLTQRLYDAGISFYGEE”, the “soluble fraction (log2)” value was -0.784.

For the sequence “HMQILVEGVEANQRLDLFLRARLTEFSRSRIQGLVKNGNVLVNGNIARQAYLVQVGDKIELDVPEPVA”, the “soluble fraction (log2)” value is 0.112.

With “HMQIMVVDEADRMLDMGFIPDIERIFQLTPFTRQTLFFSATMAPEIERITDTFLHSPERIEVAR”, the “soluble fraction (log2)” value was -1.14.

For the sequence “HMQISDDGFILKIINEVVAENPKSISDYISGKEAAVGFLVGQIMKKTRGKANPKLVNEMLITELAKLKN”, the “soluble fraction (log2)” value is -0.393.

As to “HMQISDESSIAKIADEVISEFPSQVSEFRSGKEKVLQFLIGQVMKKTKGKANPQITAKILREKLS”, the “soluble fraction (log2)” value stood at 0.17.

Turning to “HMQISDSASVKTVVAEAIAANPKAVADFMNGKDTATRYLVGQVMKITKGQAKPELVNQLVLESLAELKEK”, the “soluble fraction (log2)” value came to 0.226.

With “HMQISDSGELEKIVLQVIEENPKPAEQVRSGNEKAIGALVGGVMKATQGRADGGEVNRLLRQHLGL”, the “soluble fraction (log2)” value amounted to 0.23.

With “HMQISDVSLIAKVIDDVIDNNVKSVSDYLEGNLNVLRFLVGQVMKETKGKANPQKATELLQEKLESLNN”, the “soluble fraction (log2)” value was -0.386.

With “HMQISLDTKLINLEFSVRANNVFRENQIFTLRDLTSHSKEDLMLMTNFGKTTLYEVNKKLEEHQLKLSQ”, the “soluble fraction (log2)” value is -1.53.

Regarding “HMQISNEEELEKIIENVIESNPEKVKAYQSGKSGLIGFFMGQVMKESGGQANPNLVNQILKGKL”, the “soluble fraction (log2)” value was determined as 0.109.

“HMQIYSQEIYDAQKVLKELGLYTSDLDGLNGPGTKRALRNFQSKSGLNADGVLGPLTKSALDKGEESYITV”: the “soluble fraction (log2)” value is -0.0943.

As to “HMQKADFDYGDYVDLGLAMGRQSRQLREAVGIKLGIGYANSKRFYQRLQTFGISLAELKQAVEEAENDQQN”, the “soluble fraction (log2)” value is 0.149.

On to “HMQKEMDIVLQINGKMRSNLKVSSTANDDEIIKTAIESDAYKKFSLGLRIQKTIIVPNRLINIVLEK”, for which the “soluble fraction (log2)” value is not below 0.43.

On to “HMQKIYTIARGDTLSHIVAGTLKQQGIAYTTGELYRLVNVVAQYNDILNPNRIYTGHQLDLTPLYSED”, for which the “soluble fraction (log2)” value was -0.434.

Turning to “HMQKLLGPFEDFVKIKLDKYPDTKAAQMHDWLKEHYPDFPEVTPKTVYNFVMYVRQRHNIPIPD”, the “soluble fraction (log2)” value was -0.276.

As to “HMQKTVLAASVYERMKERIMDQYYPPGERLNIDALAIDLAVSPTPIREALARLAAERLITFEAYKGYRVSP”, the “soluble fraction (log2)” value is -0.637.

On to “HMQLEPLVTSVIPVNFAKASDISGTIKGKEVGLLSERGNITAENRTNVLIVKDIRKSVDEINAMVKRLD”, for which the “soluble fraction (log2)” value worked out at 0.151.

As for “HMQLFKFKNAMMELAKNKNITLDTAEKAIGLEAGFTELVARGVKELALSDVIKISKYFNTTMDSVLD”, the “soluble fraction (log2)” value was -0.995.

For “HMQLPFTPREHEITQLLSRGLSNRQIAEALSLSVRTVEGHIYQASTKLGISSRSELAVLVGQFA”, the “soluble fraction (log2)” value is -0.967.

For “HMQLSQLLQPFDINAFKGHPLYTEENVKMFNDYTNRVKEWTKGTPYEQYWVTKEGQPTMLAWDSFKK”, the “soluble fraction (log2)” value is -1.07.

Regarding “HMQLTQEAIENLFKITTAKKFREELEKLVVTDSEKKAFAYFTVYHPKLKELPFAILKSVENYTGISI”, the “soluble fraction (log2)” value is -0.319.

As to “HMQLVPGIGRLSARELEVFTLIGRGLGTSEIGKKLGVSAYTVQTHRNHIKEKLNLPNAAAITYWAIQWAHG”, the “soluble fraction (log2)” value is -0.338.

For “HMQMEDTDALLQVAKEVVAENQDTVEAYLGGREKAFASLIGAAMKKTRGKANPKVIRQLILDLIQ”, the “soluble fraction (log2)” value was -0.432.

Take “HMQMEISQRIKLERQTLKWTQEELADKIFVSKRTISNWETGRTVPDIESVLRLAKVFHVSLEDLLL”: the “soluble fraction (log2)” value is -0.021.

As to “HMQMEYEKAIAYILDKIKSGELSIGSKLPAERVIADTLHIGRNSTREALSILHGMGMVDRVHGSGNYISEH”, the “soluble fraction (log2)” value was -0.111.

Take “HMQMLQDPFLNALRKEHVPVSIYLVNGIKLQGQVESFDQYVVLLRNTSVTQMVYKHAISTIVPARAVSL”: the “soluble fraction (log2)” value was -0.412.

“HMQMRKENKILVTDIGEIDEVKVIFDDDNKPYLYSYNGEDEFYRPDETYKFFDNKEQAEEYVREN”: the “soluble fraction (log2)” value is -0.891.

On to “HMQMSPREKMIYSFIESHPGTKSGEIAEKLNVPLPTVKRILSEMVSGNFIAKHGSGIGTNYSTEK”, for which the “soluble fraction (log2)” value is not below 0.43.

Take “HMQMSWDAVKARLQDIVNNEDKTKPFNDEMLASKLKEQGIEIARRTVVKYRQQLGIPAARLRKK”: the “soluble fraction (log2)” value was -0.17.

With “HMQNAETPDVAAEFRTWTSADGQFQVIAKLVKLDGESVHLERQDDGRQIAVPLGKLSSEDRLFLRGVRP”, the “soluble fraction (log2)” value was -0.0636.

Consider “HMQNEQIAFSKFLQEVDSGRVVQVEIQGNNIKGILSDGSKFYTYSPNYPELVGKLSEKGVNIVASPVE”, for which the “soluble fraction (log2)” value was 0.0117.

Turning to “HMQNFLSITSKEKIDIGNFQLISFKFENNLYDYVISGNKSELLIFQEKTIENNNENIEKITSNF”, the “soluble fraction (log2)” value is -0.847.

For the sequence “HMQNLETVEEIKELALNYLDKYQPSKKSLQVYLFRKAIDAQSNSVEKSEILKKIETVLTDLEEQGILNDAL”, the “soluble fraction (log2)” value is -0.139.

Consider “HMQNMVYVATKDIPAGGVIDQDSVSKTAISTSIDTSLYITDDDLGKIAVVNISQGQSVFSNMVGT”, for which the “soluble fraction (log2)” value is -0.585.

As for “HMQNNITISKEIELRTGPDDTYPTLKKVTAGDNVEMLSKSDTWYEIKTNDSFVGWVPGWSIL”, the “soluble fraction (log2)” value was -0.656.

With “HMQNSYSVEDLALKAGLSVDTIRYYQGLDLIAPPQKNGRRAIYGDEHLSRLDEIKKLALEGFSLRQISLLK”, the “soluble fraction (log2)” value was -1.02.

For the sequence “HMQNYNLTQQEKKVLQLLVSGKSYKMIAAELNVAFDTVKSHITNIYSKLHVHSGTEAVSVAIRDKI”, the “soluble fraction (log2)” value came to 0.199.

Take “HMQPDDELVRLLLIKIFNDKQLKVNPAVINYLLRRIDRSFESINNFVKKIDEFSLEKGRKITVNLVSGFF”: the “soluble fraction (log2)” value is -1.43.

“HMQPFTELTPREREILGHLAEGQSNKVIARHLDISDGTVKLHVKAILRKLGVHSRVEAAVMAVEHGIR”: the “soluble fraction (log2)” value was determined as 0.4.

As for “HMQPIEIQDRITKAFERSAALEAKNINVEVDGHTVKLTGTVHSLTEKEEARKAAFFAPGVTKVENHLIVDY”, the “soluble fraction (log2)” value was -0.0498.

On to “HMQPMIQIHTLANHAPVALHIKRNTQRNIIIRARDASSLNLSIPKWFSPAQLQNWLRDNEATLIRILQQAP”, for which the “soluble fraction (log2)” value is -0.256.

With “HMQPPKIISTVEPYREVVREYLKQGVEMTAIWQRLRENYQYTGSYSSVRRFVAQLEPRQPEA”, the “soluble fraction (log2)” value is -0.135.

As for “HMQPQLFRVIADDGLNIRSGPGPEYPPVAPMLRKGTQVELLQAGDRWSKVEVVGSTDVEGWVNQRYLQAV”, the “soluble fraction (log2)” value is 0.0927.

For the sequence “HMQPSQTLSATVEFPDRLDRFLALAFPEVSRARFQRLIAEGHVSVEGVPATEIRHKLKAGQRVEAVIPPA”, the “soluble fraction (log2)” value was found to be 0.197.

For the sequence “HMQPTVEGLMKALETMTFNERTALALHYGLTGRQPMTFMAIGRYLGISDGRAEALVNSAIRKLR”, the “soluble fraction (log2)” value was determined as 0.0497.

For “HMQQGVEQLPVTEVGGRLMHYYEVQPKETLYSLSHKLGVGQEYIEQHNPSVRGGLRAFMTLYFPAA”, the “soluble fraction (log2)” value was -0.12.
